The test has as its target rat synaptotagmin 2 fused to the DCTM exosome-sorting peptide, displayed on exosomes (rat) (UniProt P29101). Description: SPR; […] (1 µM); […], single-cycle kinetics, 1:1 model, […]; 25 °C, HBS pH 7.4, 150 mM NaCl.

Our source for the Kd, koff and kon values is PMC5430821.

UniProt P29101, sequence (P29101 whole entry, the tested form may be a part): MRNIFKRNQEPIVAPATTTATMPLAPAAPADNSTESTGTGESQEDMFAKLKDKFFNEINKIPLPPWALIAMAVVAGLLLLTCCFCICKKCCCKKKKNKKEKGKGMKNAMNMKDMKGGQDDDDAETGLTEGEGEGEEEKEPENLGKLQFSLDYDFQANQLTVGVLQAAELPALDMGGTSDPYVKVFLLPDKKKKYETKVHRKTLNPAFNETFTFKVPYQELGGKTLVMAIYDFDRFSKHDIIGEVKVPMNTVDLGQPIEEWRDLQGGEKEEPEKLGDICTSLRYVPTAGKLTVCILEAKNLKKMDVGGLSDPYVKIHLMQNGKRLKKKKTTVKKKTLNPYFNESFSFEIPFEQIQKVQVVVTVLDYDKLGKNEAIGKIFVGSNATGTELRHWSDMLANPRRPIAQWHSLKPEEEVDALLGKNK

In the case of “BoNT/B (B1 Okra strain) neurotoxin with non-toxic accessory proteins (complex)”, the Kd – broadly, the constant that tells how readily two partners part at equilibrium – was 1400 pM; the koff (commonly the first-order rate constant of dissociation) is 0.00041 s⁻¹; the kon (usually the rate constant with which the complex forms) is 310000 M⁻¹ s⁻¹.
On the same counts, the results for “BoNT/B holotoxin (B1), pure botulinum neurotoxin type B (natural protein)” are 600 pM, 0.00013 s⁻¹ and 230000 M⁻¹ s⁻¹.
